Data from patent publication US20190307797A1 (MAX DELBR CK CENTRUM F R MOLEKULARE MEDIZIN IN DER …, published 2019).

Biological target: T1, purified BCMA (CD269) extracellular domain (human, UniProt Q02223 4-54)
T1 construct: also called BCMA extracellular domain; extracellular domain of CD269
T1 sequence: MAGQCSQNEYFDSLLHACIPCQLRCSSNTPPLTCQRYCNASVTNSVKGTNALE
Test: co-crystallisation, crystal structure of the complex

binding result: binds
B1: Fab fragment prepared from the mouse or chimeric antibody from which the CAR was derived (chimeric antibody J22.9-xi) (Fab, V domains shown)
VH: QVQLQQSGGGLVQPGGSLKLSCAASGIDFSRYWMSWVRRAPGKGLEWIGEINPDSSTINYAPSLKDKFIISRDNAKNTLYLQMSKVRSEDTALYYCASLYYDYGDAMDYWGQGTSVTVSS
VL: DIVMTQSQRFMTTSVGDRVSVTCKASQSVDSNVAWYQQKPRQSPKALIFSASLRFSGVPARFTGSGSGTDFTLTISNLQSEDLAEYFCQQYNNYPLTFGAGTKLELKR
notes: also called J22.9-xi Fab; Fab fragments prepared from mouse or chimeric antibodies
